Here are results for one molecule from publication PMC8885691 (2022).

For this assay, the target named is p53pΔF19. The experiment in a line: ITC. On the technique in general: ITC needs no label: the signal is the heat of the interaction.

B1: p53-binding domain of human MdmX (N-MdmX, amino acids 22-110) (domain or fragment)
chain: GQINQVRPKLPLLKILHAAGAQGEMFTVKEVMHYLGQYIMVKQLYDQQEQHMVYCGGDLLGELLGRQSFSVKDPSPLYDMLRKNLVTLA
As for B1, binding was put at a Kd of 20.1 µM.

As usually defined, the Kd is the concentration at which binding is half-saturated. Low values mean tighter binding, high ones weaker binding.
